B1: GST-Smurf1 (Smad ubiquitination regulatory factor-1) (enzyme, UniProt Q9HCE7-2 1-731, looked up)
chain: MSNPGTRRNGSSIKIRLTVLCAKNLAKKDFFRLPDPFAKIVVDGSGQCHSTDTVKNTLDPKWNQHYDLYVGKTDSITISVWNHKKIHKKQGAGFLGCVRLLSNAISRLKDTGYQRLDLCKLNPSDTDAVRGQIVVSLQTRDRIGTGGSVVDCRGLLENEGTVYEDSGPGRPLSCFMEEPAPYTDSTGAAAGGGNCRFVESPSQDQRLQAQRLRNPDVRGSLQTPQNRPHGHQSPELPEGYEQRTTVQGQVYFLHTQTGVSTWHDPRIPRDLNSVNCDELGPLPPGWEVRSTVSGRIYFVDHNNRTTQFTDPRLHHIMNHQCQLKEPSQPLPLPSEGSLEDEELPAQRYERDLVQKLKVLRHELSLQQPQAGHCRIEVSREEIFEESYRQIMKMRPKDLKKRLMVKFRGEEGLDYGGVAREWLYLLCHEMLNPYYGLFQYSTDNIYMLQINPDSSINPDHLSYFHFVGRIMGLAVFHGHYINGGFTVPFYKQLLGKPIQLSDLESVDPELHKSLVWILENDITPVLDHTFCVEHNAFGRILQHELKPNGRNVPVTEENKKEYVRLYVNWRFMRGIEAQFLALQKGFNELIPQHLLKPFDQKELELIIGGLDKIDLNDWKSNTRLKHCVADSNIVRWFWQAVETFDEERRARLLQFVTGSTRVPLQGFKALQGSTGAAGPRLFTIHLIDANTDNLPKAHTCFNRIDIPPYESYEKLYEKLLTAVEETCGFAVE
notes: Smurf1, HECT-type ubiquitin ligase; also called GST-tagged Smurf1; source: bacteria-expressed, immobilized on Glutathione-Sepharose 4B beads

Assays:
Assay in all cases: pull-down; GST fusion immobilized on Glutathione-Sepharose 4B beads, incubated with the partner for 8 h at 4°C; washed with GST-binding buffer (100 mM NaCl, 50 mM NaF, 2 mM EDTA, 1% NP-40); immunoblotting; also run with B06 and B75 where the paper says they had no effect
Details in all cases: both partners purified
[1] = target: B1
[2] = target: T1, His-Ub (ubiquitin) (UniProt P0CG48 1-76)
T1 construct: ubiquitin, single (mono) ubiquitin; also called mono-Ub; single Ub protein

[3] = target: T2, UbcH7 (UniProt P68036 1-154)
T2 construct: UbcH7, ubiquitin-conjugating enzyme (E2) of Smurf1; The methods say the assay is the same as GST-Smurf1 with His-Ub, so a His tag is likely; also called E2; source: prokaryotic expressed, purified
T2 sequence (P68036 whole entry): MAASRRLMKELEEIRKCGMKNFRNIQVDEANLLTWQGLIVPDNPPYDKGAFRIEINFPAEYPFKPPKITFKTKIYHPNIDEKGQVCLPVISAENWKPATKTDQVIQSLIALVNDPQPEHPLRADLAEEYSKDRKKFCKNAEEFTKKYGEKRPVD

binding result [1] | binding result [2] | binding result [3] | Binder
binds |  |  | UbcH5c (enzyme, UbcH5c, ubiquitin-conjugating enzyme (E2) of Smurf1; The methods say the assay is the same as GST-Smurf1 with His-Ub, so a His tag is likely; also called E2; source: prokaryotic expressed, purified) not shown
 | binds | binds | B1

From paper PMC5584161, “Selective compounds enhance osteoblastic activity by targeting HECT domain of ubiquitin ligase Smurf1” (Oncotarget, 2016)
